These results are taken from PMC4598089, “An Sp1 Modulated Regulatory Region Unique to Higher Primates Regulates Human Androgen Receptor Promoter Activity in Prostate Cancer Cells”.

The target in the data set is Sp1 (purified recombinant) (Homo sapiens, UniProt P08047 1-785). As to the kind of experiment: EMSA; EMSA: 10 ug nuclear extract or 120 nM Sp1, 20 fmol biotin probe; binding buffer per earlier paper (not given); 6% native PAGE, 0.5x TBE pH 8.3, cooled gel. pur-alpha bands not listed: antibody had no effect, protein not identified in extract. The following applies: label: 3' biotin, blunt.
Sequence of Sp1 (purified recombinant) (P08047 whole entry): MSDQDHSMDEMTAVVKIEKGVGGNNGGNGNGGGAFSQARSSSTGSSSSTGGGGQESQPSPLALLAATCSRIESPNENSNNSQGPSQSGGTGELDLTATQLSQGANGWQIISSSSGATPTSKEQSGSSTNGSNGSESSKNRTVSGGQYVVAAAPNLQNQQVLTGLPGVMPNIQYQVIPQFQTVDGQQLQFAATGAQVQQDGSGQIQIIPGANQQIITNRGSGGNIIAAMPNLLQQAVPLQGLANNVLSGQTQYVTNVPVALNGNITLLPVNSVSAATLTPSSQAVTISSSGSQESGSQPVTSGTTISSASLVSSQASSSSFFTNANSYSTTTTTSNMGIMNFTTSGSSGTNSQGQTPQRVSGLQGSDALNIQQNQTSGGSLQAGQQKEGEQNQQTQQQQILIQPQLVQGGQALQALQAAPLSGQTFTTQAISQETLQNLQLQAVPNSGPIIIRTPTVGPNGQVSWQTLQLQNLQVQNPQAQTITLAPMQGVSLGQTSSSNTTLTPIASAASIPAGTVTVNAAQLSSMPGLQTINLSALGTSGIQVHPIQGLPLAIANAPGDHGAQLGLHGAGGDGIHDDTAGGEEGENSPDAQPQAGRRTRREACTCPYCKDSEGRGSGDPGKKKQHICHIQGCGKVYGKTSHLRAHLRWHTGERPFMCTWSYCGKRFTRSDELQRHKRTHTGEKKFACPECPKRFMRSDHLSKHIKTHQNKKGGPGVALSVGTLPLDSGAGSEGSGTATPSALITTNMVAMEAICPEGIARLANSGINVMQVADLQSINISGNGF

B1: Sp1-1 (dsDNA)
DNA 1: CGGCCCGGTGGGGGCGGGACCCGACTCGCA
DNA 2: TGCGAGTCGGGTCCCGCCCCCACCGGGCCG
Take B1: the binding result is on record as “binds”.

B2: Sp1-3 (dsDNA)
DNA 1: TTCTCCCCACCCGCCCCCCCGCCCCCGTCG
DNA 2: CGACGGGGGCGGGGGGGCGGGTGGGGAGAA
B2: the binding result is recorded as “binds”.

B3: ARS (dsDNA)
DNA 1: TCTCCACCCCGCCTCCCCCCACCCTGCCTT
DNA 2: AAGGCAGGGTGGGGGGAGGCGGGGTGGAGA
Take B3: the binding result was “binds”.
